Laboratory results from the supplement of paper PMC9112550, “Optimization of the antimicrobial peptide Bac7 by deep mutational scanning” (BMC Biology, 2022).

test system: Escherichia coli TOP10; experiment: shrunken log2 fold change of peptide-encoding DNA abundance (4.5 h post-induction vs induction); higher = less antimicrobial activity (less host growth inhibition); conditions: time post-induction: 4.5 h; library: site-saturation at positions 5, 18, 19, 20
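Note: peptides expressed intracellularly from a pBAD plasmid library in pooled LB shake-flask culture, induced with 0.3% L-arabinose, DNA abundance read by NGS, three biological replicates, DESeq2 with apeglm shrinkage.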

Row | Sequence | shrunken log2 fold change
1 | RRIRLRPPRLPRPRPRPGGKPRP | -0.00333
2 | RRIRLRPPRLPRPRPRPGICPRP | 0.126
3 | RRIRLRPPRLPRPRPRPGIEPRP | -0.00975
4 | RRIRLRPPRLPRPRPRPGKGPRP | -0.0192
5 | RRIRLRPPRLPRPRPRPGKPPRP | -0.0724
6 | RRIRLRPPRLPRPRPRPGMIPRP | -0.419
7 | RRIRLRPPRLPRPRPRPGMKPRP | -0.0618
8 | RRIRLRPPRLPRPRPRPGNGPRP | 0.0164
9 | RRIRLRPPRLPRPRPRPGQGPRP | -0.0179
10 | RRIRLRPPRLPRPRPRPGQLPRP | -0.0554
11 | RRIRLRPPRLPRPRPRPGQSPRP | 0.0614
12 | RRIRLRPPRLPRPRPRPGSDPRP | -0.149
13 | RRIRLRPPRLPRPRPRPGSQPRP | 0.0681
14 | RRIRLRPPRLPRPRPRPGSYPRP | 0.186
15 | RRIRLRPPRLPRPRPRPGTMPRP | -0.0422
16 | RRIRLRPPRLPRPRPRPGVDPRP | 0.411
17 | RRIRLRPPRLPRPRPRPGVGPRP | 0.537
18 | RRIRLRPPRLPRPRPRPGWCPRP | 0.191
19 | RRIRLRPPRLPRPRPRPHAAPRP | -0.343
20 | RRIRLRPPRLPRPRPRPHAGPRP | 0.168
21 | RRIRLRPPRLPRPRPRPHAYPRP | -0.392
22 | RRIRLRPPRLPRPRPRPHEFPRP | -0.0833
23 | RRIRLRPPRLPRPRPRPHEPPRP | -0.0213
24 | RRIRLRPPRLPRPRPRPHFDPRP | -0.212
25 | RRIRLRPPRLPRPRPRPHFMPRP | 0.0603

Row | Sequence | shrunken log2 fold change
26 | RRIRLRPPRLPRPRPRPHFPPRP | 2.38
27 | RRIRLRPPRLPRPRPRPHGMPRP | -0.177
28 | RRIRLRPPRLPRPRPRPHILPRP | -0.0127
29 | RRIRLRPPRLPRPRPRPHITPRP | -0.824
30 | RRIRLRPPRLPRPRPRPHKPPRP | 0.119
31 | RRIRLRPPRLPRPRPRPHLFPRP | -0.0266
32 | RRIRLRPPRLPRPRPRPHLIPRP | -0.151
33 | RRIRLRPPRLPRPRPRPHLLPRP | -0.0156
34 | RRIRLRPPRLPRPRPRPHMSPRP | -0.325
35 | RRIRLRPPRLPRPRPRPHNCPRP | -0.192
36 | RRIRLRPPRLPRPRPRPHPPPRP | 1
37 | RRIRLRPPRLPRPRPRPHQDPRP | -0.308
38 | RRIRLRPPRLPRPRPRPHQQPRP | 0.0445
39 | RRIRLRPPRLPRPRPRPHREPRP | -0.969
40 | RRIRLRPPRLPRPRPRPHSHPRP | 1.65
41 | RRIRLRPPRLPRPRPRPHVQPRP | -0.528
42 | RRIRLRPPRLPRPRPRPHWCPRP | -0.0751
43 | RRIRLRPPRLPRPRPRPIADPRP | -0.0951
44 | RRIRLRPPRLPRPRPRPICYPRP | -0.284
45 | RRIRLRPPRLPRPRPRPIDFPRP | -0.384
46 | RRIRLRPPRLPRPRPRPIHAPRP | 0.111
47 | RRIRLRPPRLPRPRPRPIKAPRP | -0.0378
48 | RRIRLRPPRLPRPRPRPILAPRP | -0.0814
49 | RRIRLRPPRLPRPRPRPILHPRP | -0.231
50 | RRIRLRPPRLPRPRPRPIMHPRP | 0.0628

Row | Sequence | shrunken log2 fold change
51 | RRIRLRPPRLPRPRPRPINGPRP | 0.015
52 | RRIRLRPPRLPRPRPRPIPEPRP | 0.0268
53 | RRIRLRPPRLPRPRPRPIREPRP | -0.27
54 | RRIRLRPPRLPRPRPRPISWPRP | 0.0554
55 | RRIRLRPPRLPRPRPRPITEPRP | 0.0241
56 | RRIRLRPPRLPRPRPRPITLPRP | -0.553
57 | RRIRLRPPRLPRPRPRPITWPRP | -0.543
58 | RRIRLRPPRLPRPRPRPIVEPRP | 0.0406
59 | RRIRLRPPRLPRPRPRPIVYPRP | -0.43
60 | RRIRLRPPRLPRPRPRPKCDPRP | -0.461
61 | RRIRLRPPRLPRPRPRPKCIPRP | -0.9
62 | RRIRLRPPRLPRPRPRPKCKPRP | -0.223
63 | RRIRLRPPRLPRPRPRPKCVPRP | 0.0912
64 | RRIRLRPPRLPRPRPRPKDWPRP | 0.467
65 | RRIRLRPPRLPRPRPRPKEDPRP | -0.184
66 | RRIRLRPPRLPRPRPRPKEYPRP | -0.567
67 | RRIRLRPPRLPRPRPRPKGEPRP | 0.149
68 | RRIRLRPPRLPRPRPRPKGKPRP | -0.106
69 | RRIRLRPPRLPRPRPRPKHMPRP | -0.0682
70 | RRIRLRPPRLPRPRPRPKIGPRP | -0.251
71 | RRIRLRPPRLPRPRPRPKILPRP | -0.143
72 | RRIRLRPPRLPRPRPRPKIVPRP | -0.142
73 | RRIRLRPPRLPRPRPRPKKDPRP | 0.0575
74 | RRIRLRPPRLPRPRPRPKKLPRP | 0.111
75 | RRIRLRPPRLPRPRPRPKLMPRP | -0.162
